Test results: patent publication US20240309103A1 (Regeneron, published 2024)

Experiments:
[1] = target: T1, hNPR1-mFc:hANP or hNPR1-hFc:hANP complex (human, UniProt P01160 124-151); assay: SPR, mAb captured, 25C
T1 construct: also called human NPR1 complexed to ANP
Protocol: (§1) Equilibrium dissociation constant (KD) for different NPR1 reagents binding to purified anti-NPR1 monoclonal antibodies (mAbs) were determined using a real-time surface plasmon resonance based Biacore 4000 biosensor. All binding studies were performed in 10 mM HEPES, 150 mM NaCl, 3 mM EDTA, and 0.05% v/v Surfactant Tween-20, pH 7.4 (HBS-ET) running buffer at 25° C. and 37° C. The Biacore CM5 sensor chip surface was first derivatized by amine coupling with either mouse anti-human Fc specific mAb (GE Healthcare, #BR100839) or goat anti-human Fcy specific polyclonal antibody (Jackson ImmunoResearch Laboratories, #BR-1008-39) to capture anti-NPR1 mAbs.

[2] = target: T2, hNPR1-mFc:hBNP complex (human, UniProt P16860 103-134); assay: SPR, mAb captured, 25C
T2 construct: also called human NPR1 complexed to BNP
Protocol: as §1

[3] = target: T3, mfNPR1-mFc (monkey); assay: SPR, mAb captured, 25C
T3 construct: also called dimeric monkey NPR1
T3 chain: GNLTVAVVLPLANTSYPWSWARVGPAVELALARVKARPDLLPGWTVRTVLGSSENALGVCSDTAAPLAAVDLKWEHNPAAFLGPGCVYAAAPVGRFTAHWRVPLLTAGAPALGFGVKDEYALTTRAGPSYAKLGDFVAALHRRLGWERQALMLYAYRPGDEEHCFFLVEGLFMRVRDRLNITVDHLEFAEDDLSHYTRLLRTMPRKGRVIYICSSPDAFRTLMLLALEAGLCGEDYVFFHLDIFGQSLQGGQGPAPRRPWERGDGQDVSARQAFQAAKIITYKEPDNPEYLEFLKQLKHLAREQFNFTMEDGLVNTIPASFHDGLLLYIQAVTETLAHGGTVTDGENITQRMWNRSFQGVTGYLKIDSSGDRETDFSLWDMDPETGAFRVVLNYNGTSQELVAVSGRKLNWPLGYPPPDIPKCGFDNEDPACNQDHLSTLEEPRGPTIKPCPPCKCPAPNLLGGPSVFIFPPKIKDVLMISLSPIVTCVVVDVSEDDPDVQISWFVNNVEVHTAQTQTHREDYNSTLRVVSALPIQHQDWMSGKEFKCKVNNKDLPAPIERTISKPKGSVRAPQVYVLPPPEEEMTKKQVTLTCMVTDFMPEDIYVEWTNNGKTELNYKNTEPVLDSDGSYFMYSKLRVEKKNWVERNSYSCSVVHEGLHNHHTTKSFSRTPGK
Protocol: as §1

[4] = target: T4, mfNPR1-mFc:hANP complex (monkey; human, UniProt P01160 124-151); assay: SPR, mAb captured, 25C
T4 construct: also called monkey NPR1 complexed to ANP
Protocol: as §1

[5] = target: T5, mfNPR1-mFc:hBNP complex (monkey; human, UniProt P16860 103-134); assay: SPR, mAb captured, 25C
T5 construct: also called monkey NPR1 complexed to BNP
Protocol: as §1

[6] = target: T1, hNPR1-mFc:hANP or hNPR1-hFc:hANP complex; assay: SPR, mAb captured, 37C
Protocol: as §1

[7] = target: T2, hNPR1-mFc:hBNP complex; assay: SPR, mAb captured, 37C
Protocol: as §1

[8] = target: T3, mfNPR1-mFc; assay: SPR, mAb captured, 37C
Protocol: as §1

[9] = target: T4, mfNPR1-mFc:hANP complex; assay: SPR, mAb captured, 37C
Protocol: as §1

B1: mAb22033 (antibody, human IgG4, V domains shown)
VH: QVQLVQSGAEVKKPGASVTVSCKASGYTFTDYYMHWVRQAPGQGLEWMGWIKPNSGGTNSAQRFQGRITMTWDTSISTAYMELSRLRSDDTAVYYCSRGGPVMNYYYYYGMDVWGQGTTVTVSS
VL: NIQMTQSPSSLSASVGDRVTITCRASQSIDSYLNWYQQKPGKAPKLLIYVASSLQSGVPSRFSGSGSGKDFTLTISSLQPEDFATYYCQQSYSIPTFGQGTRLEIK
100 nM Ag Bound (RU) [1]: 84 RU | Kd [1]: 1.43 nM | koff [1]: 8.6e-05 s⁻¹ | kon [1]: 60300 M⁻¹ s⁻¹ | t½ [1]: 2.24 h | 100 nM Ag Bound (RU) [2]: 85 RU | Kd [2]: 1.23 nM | koff [2]: 6.67e-05 s⁻¹ | kon [2]: 54300 M⁻¹ s⁻¹ | t½ [2]: 2.89 h | 100 nM Ag Bound (RU) [3]: 96 RU | Kd [3]: 0.938 nM | koff [3]: 4.85e-05 s⁻¹ | kon [3]: 51700 M⁻¹ s⁻¹ | t½ [3]: 3.97 h | 100 nM Ag Bound (RU) [4]: 133 RU | Kd [4]: 0.815 nM | koff [4]: 5.36e-05 s⁻¹ | kon [4]: 65800 M⁻¹ s⁻¹ | t½ [4]: 3.59 h | 100 nM Ag Bound (RU) [5]: 132 RU | Kd [5]: 0.781 nM | koff [5]: 5.15e-05 s⁻¹ | kon [5]: 65900 M⁻¹ s⁻¹ | t½ [5]: 3.74 h | 100 nM Ag Bound (RU) [6]: 108 RU | Kd [6]: 1.69 nM | koff [6]: 9.8e-05 s⁻¹ | kon [6]: 57900 M⁻¹ s⁻¹ | t½ [6]: 1.97 h | 100 nM Ag Bound (RU) [7]: 108 RU | Kd [7]: 1.79 nM | koff [7]: 9.6e-05 s⁻¹ | kon [7]: 53700 M⁻¹ s⁻¹ | t½ [7]: 2 h | 100 nM Ag Bound (RU) [8]: 126 RU | Kd [8]: 2.06 nM | koff [8]: 9.9e-05 s⁻¹ | kon [8]: 48200 M⁻¹ s⁻¹ | t½ [8]: 1.95 h | 100 nM Ag Bound (RU) [9]: 169 RU | Kd [9]: 1.31 nM | koff [9]: 8.9e-05 s⁻¹ | kon [9]: 68000 M⁻¹ s⁻¹ | t½ [9]: 2.16 h

B2: mAb22805 (antibody, human IgG4, V domains shown)
VH: QVQLVESGGGVVQPGRSLRLSCAASGFTFSTYGMHWVRQAPGKGLEWVALIWNDGSNKYYADSVKGRFTISRDNSKNTLDLQMNSLRAEDTAVYYCARLNTRITGTTNLDYWGQGTLVTVSS
VL: DIQMTQSPSSLSASVGDRVTVSCRASQSIANYLNWYQQKPGKAPNLLIYGAYTLQSGVPSRFRGSGSGTDFTLTISSLQPEDFATYYCQQTYSTPPITFGQGTRLEIK
100 nM Ag Bound (RU) [1]: 84 RU | Kd [1]: 3.28 nM | koff [1]: 0.000141 s⁻¹ | kon [1]: 43100 M⁻¹ s⁻¹ | t½ [1]: 1.36 h | 100 nM Ag Bound (RU) [2]: 84 RU | Kd [2]: 3.68 nM | koff [2]: 0.000152 s⁻¹ | kon [2]: 41400 M⁻¹ s⁻¹ | t½ [2]: 1.26 h | 100 nM Ag Bound (RU) [4]: 116 RU | Kd [4]: 1.96 nM | koff [4]: 9.51e-05 s⁻¹ | kon [4]: 48400 M⁻¹ s⁻¹ | t½ [4]: 2.02 h | 100 nM Ag Bound (RU) [5]: 113 RU | Kd [5]: 2.12 nM | koff [5]: 9.6e-05 s⁻¹ | kon [5]: 45300 M⁻¹ s⁻¹ | t½ [5]: 2.01 h | 100 nM Ag Bound (RU) [6]: 113 RU | Kd [6]: 4.91 nM | koff [6]: 0.000295 s⁻¹ | kon [6]: 60100 M⁻¹ s⁻¹ | t½ [6]: 0.653 h | 100 nM Ag Bound (RU) [7]: 112 RU | Kd [7]: 6.02 nM | koff [7]: 0.000313 s⁻¹ | kon [7]: 52000 M⁻¹ s⁻¹ | t½ [7]: 0.615 h | 100 nM Ag Bound (RU) [9]: 153 RU | Kd [9]: 3.3 nM | koff [9]: 0.000209 s⁻¹ | kon [9]: 63300 M⁻¹ s⁻¹ | t½ [9]: 0.922 h
